# Measurements as given in the supplement of paper PMC7877785.
# ± gives the uncertainty stated by the source.
# Test: self-splicing fitness, log relative to wild type (ln ratio); higher = more splicing; Tetrahymena group I intron in knt gene, E. coli kanamycin selection, DiMSum; sequences stand for … in CUCUCU…GGAGGGAAAAGUUAUCAGGCAUGCACCUGGUAGCUAGUCUUUAAACCAAUAGAUUGCAUCGGUUUAAAAGGCAAGACCGUCAAAUUGCGGGAAAGGGGUCAACAGCCGUUCAGUACCAAGUCUCAGGGGAAACUUUGAGAUGGCCUUGCAAAGGGUAUGGUAAUAAGCUGACGGACAUGGUCCUAACCACGCAGCCAAGUCCUAAGUCAACAGAUCUUCUGUUGAUAUGGAUGCAGUUCACAGACUAAAUGUCGGUCGGGGAAGAUGUAUUCUUCUCAUAAGAUAUAGUCGGACCUCUCCUUAAUGGGAGCUAGCGGAUGAAGUGAUGCAACACUGGAGCCGCUGGGAACUAAUUUGUAUGCGAAAGUAUAUUGAUUAGUUUUGGAGUACUCGUGGUCG
# Outline: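 Pooled colonies went to amplicon sequencing on an Illumina HiSeq 2500 after six replicate transformations. The plates were LB agar with 100 μg/mL carbenicillin, 50 μM IPTG and 0.2% rhamnose, with or without 25 μg/mL kanamycin, incubated overnight at 37°C or 30°C. The E. coli BL21(DE3) library had all eight P1ex-region intron nucleotides randomised, the intron placed in the knt kanamycin-resistance gene on pET-22b(+). DiMSum fitness is the error-weighted combination of replicate fold changes, kanamycin against none, normalised to wild type.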
Sequence,self-splicing fitness (ln) (30 °C),self-splicing fitness (ln) (37 °C)
ACUUAGCAAUAUUACGUCAU,-3.1 ± 0.2,-1.56 ± 0.17
ACUUAGCAAUAUUACGUCGC,–,-1.22 ± 0.26
ACUUAGCAAUAUUACGUGCA,-1.1 ± 0.055,-0.535 ± 0.072
ACUUAGCAAUAUUACGUUCA,-0.344 ± 0.19,-0.694 ± 0.2
ACUUAGCAAUAUUACGUUCU,-1.28 ± 0.064,-0.195 ± 0.087
ACUUAGCAAUAUUACGUUUA,-1.5 ± 0.17,-1.07 ± 0.18
AGAAAGCAAUAUUACGAAAC,-3.2 ± 0.25,-2.93 ± 0.24
AGAAAGCAAUAUUACGAAAU,-1.52 ± 0.1,-1.91 ± 0.15
AGAAAGCAAUAUUACGAAGU,-3.61 ± 0.27,-2.15 ± 0.21
AGAAAGCAAUAUUACGACAU,0.0508 ± 0.012,0.0923 ± 0.032
AGAAAGCAAUAUUACGACCU,0.52 ± 0.099,0.265 ± 0.11
AGAAAGCAAUAUUACGACGU,0.0909 ± 0.1,0.35 ± 0.1
AGAAAGCAAUAUUACGACUU,-0.252 ± 0.072,0.222 ± 0.1
AGAAAGCAAUAUUACGAGCA,-0.695 ± 0.11,-0.262 ± 0.16
AGAAAGCAAUAUUACGAGUA,-2.18 ± 0.097,-1.13 ± 0.086
AGAAAGCAAUAUUACGAUAG,-3.4 ± 0.38,-1.02 ± 0.16
AGAAAGCAAUAUUACGAUCU,-2.88 ± 0.11,-0.99 ± 0.11
AGAAAGCAAUAUUACGCACC,0.221 ± 0.098,0.0714 ± 0.12
AGAAAGCAAUAUUACGCGAU,-3.37 ± 0.17,-1.63 ± 0.13
AGAAAGCAAUAUUACGCGGG,-2.43 ± 0.24,-2.25 ± 0.26
AGAAAGCAAUAUUACGGACU,-0.691 ± 0.079,0.112 ± 0.089
AGAAAGCAAUAUUACGGCCC,0.946 ± 0.29,-0.169 ± 0.27
AGAAAGCAAUAUUACGGGUG,-1.41 ± 0.089,-1.36 ± 0.14
AGAAAGCAAUAUUACGGUCA,-0.253 ± 0.078,0.187 ± 0.091
AGAAAGCAAUAUUACGUAGA,-1.52 ± 0.12,-1.52 ± 0.14

Sequence,self-splicing fitness (ln) (30 °C),self-splicing fitness (ln) (37 °C)
AGAAAGCAAUAUUACGUCAG,-1.94 ± 0.093,-0.978 ± 0.11
AGAAAGCAAUAUUACGUCCA,-1.06 ± 0.1,-0.056 ± 0.13
AGAAAGCAAUAUUACGUCCG,-0.86 ± 0.096,0.226 ± 0.14
AGAAAGCAAUAUUACGUCGU,-1.9 ± 0.059,-0.452 ± 0.081
AGAAAGCAAUAUUACGUCUG,-0.808 ± 0.043,-0.1 ± 0.063
AGACAGCAAUAUUACGAACA,-1.33 ± 0.1,-0.502 ± 0.099
AGACAGCAAUAUUACGACAA,-1.34 ± 0.12,-1.02 ± 0.12
AGACAGCAAUAUUACGACUG,-1.14 ± 0.078,-0.387 ± 0.084
AGACAGCAAUAUUACGAGGG,-4.15 ± 0.16,-2.61 ± 0.21
AGACAGCAAUAUUACGAUAG,-3.16 ± 0.2,-1.56 ± 0.26
AGACAGCAAUAUUACGCAAA,-2.66 ± 0.18,-1.37 ± 0.14
AGACAGCAAUAUUACGCCGA,-2.06 ± 0.089,-0.863 ± 0.094
AGACAGCAAUAUUACGCGCU,-2.26 ± 0.12,-1.63 ± 0.13
AGACAGCAAUAUUACGCGGG,-3.46 ± 0.2,-2.62 ± 0.18
AGACAGCAAUAUUACGCGGU,-3.61 ± 0.21,-2.4 ± 0.22
AGACAGCAAUAUUACGCGUG,-1.91 ± 0.075,-0.597 ± 0.086
AGACAGCAAUAUUACGCUAC,-2.43 ± 0.2,-2.61 ± 0.33
AGACAGCAAUAUUACGCUUC,-3.78 ± 0.28,-1.86 ± 0.27
AGACAGCAAUAUUACGGACA,-1.09 ± 0.1,-0.425 ± 0.12
AGACAGCAAUAUUACGGCAG,-3.3 ± 0.15,-1.09 ± 0.12
AGACAGCAAUAUUACGGCUC,-2.59 ± 0.15,-1.02 ± 0.13
AGACAGCAAUAUUACGGGCG,-0.665 ± 0.1,-0.459 ± 0.12
AGACAGCAAUAUUACGGUUA,-0.253 ± 0.082,-0.109 ± 0.079
AGACAGCAAUAUUACGUAUG,-3.13 ± 0.15,-0.801 ± 0.12
AGACAGCAAUAUUACGUUAU,-2.29 ± 0.1,-2.06 ± 0.12

Sequence,self-splicing fitness (ln) (30 °C),self-splicing fitness (ln) (37 °C)
AGAGAGCAAUAUUACGAAAU,-3.71 ± 0.33,-1.89 ± 0.24
AGAGAGCAAUAUUACGAAUG,-2.07 ± 0.22,-3.27 ± 0.47
AGAGAGCAAUAUUACGAAUU,-1.19 ± 0.2,-2.95 ± 0.32
AGAGAGCAAUAUUACGAGGA,-2.71 ± 0.4,-2.21 ± 0.34
AGAGAGCAAUAUUACGAGGU,-2.98 ± 0.2,-1.87 ± 0.32
AGAGAGCAAUAUUACGAGUU,-4.21 ± 0.3,-2.41 ± 0.2
AGAGAGCAAUAUUACGAUAU,-2.21 ± 0.47,-2.2 ± 0.43
AGAGAGCAAUAUUACGCACG,-2.18 ± 0.38,–
AGAGAGCAAUAUUACGCAGU,–,-2.32 ± 0.35
AGAGAGCAAUAUUACGCAUG,-3.23 ± 0.22,-1.9 ± 0.35
AGAGAGCAAUAUUACGCCGG,-1.82 ± 0.25,–
AGAGAGCAAUAUUACGCGCA,-3 ± 0.36,-1.74 ± 0.14
AGAGAGCAAUAUUACGCUAA,–,-0.209 ± 0.21
AGAGAGCAAUAUUACGGAGU,-3.87 ± 0.4,-3.3 ± 0.47
AGAGAGCAAUAUUACGGAUU,-2.87 ± 0.2,-2.57 ± 0.34
AGAGAGCAAUAUUACGGCAA,–,-1.48 ± 0.4
AGAGAGCAAUAUUACGGCGG,-2.77 ± 0.48,–
AGAGAGCAAUAUUACGGCUA,-1.86 ± 0.46,-2.19 ± 0.39
AGAGAGCAAUAUUACGGGAA,-4.12 ± 0.35,-2.62 ± 0.28
AGAGAGCAAUAUUACGGUAG,-1.46 ± 0.12,-2.18 ± 0.19
AGAGAGCAAUAUUACGUAAC,–,-3.26 ± 0.31
AGAGAGCAAUAUUACGUCCU,-2.25 ± 0.12,-0.89 ± 0.13
AGAGAGCAAUAUUACGUCUU,-2.88 ± 0.19,-2 ± 0.18
AGAGAGCAAUAUUACGUUAG,-2.77 ± 0.19,-2.45 ± 0.29
AGAGAGCAAUAUUACGUUUU,-3.68 ± 0.35,–

Sequence,self-splicing fitness (ln) (30 °C),self-splicing fitness (ln) (37 °C)
AGAUAGCAAUAUUACGACUC,-0.641 ± 0.12,-0.0202 ± 0.21
AGAUAGCAAUAUUACGAGGA,-2.21 ± 0.21,-2.65 ± 0.48
AGAUAGCAAUAUUACGAGGG,-3.73 ± 0.41,-1.77 ± 0.33
AGAUAGCAAUAUUACGAUCC,-1.68 ± 0.38,-0.656 ± 0.39
AGAUAGCAAUAUUACGAUUA,-0.68 ± 0.15,-0.852 ± 0.14
AGAUAGCAAUAUUACGCCAA,-2.98 ± 0.38,-3.38 ± 0.37
AGAUAGCAAUAUUACGCCAU,-2.38 ± 0.12,-1.27 ± 0.13
AGAUAGCAAUAUUACGCCUA,-1.21 ± 0.099,-1.29 ± 0.13
AGAUAGCAAUAUUACGCGUG,-1.44 ± 0.1,-1.01 ± 0.12
AGAUAGCAAUAUUACGCUGA,-1.79 ± 0.14,-0.681 ± 0.17
AGAUAGCAAUAUUACGGAAG,-3.57 ± 0.22,-2.02 ± 0.19
AGAUAGCAAUAUUACGGAUA,-4.2 ± 0.42,-1.23 ± 0.23
AGAUAGCAAUAUUACGGCUG,-0.377 ± 0.12,-0.792 ± 0.2
AGAUAGCAAUAUUACGGGAA,-3 ± 0.27,-2.7 ± 0.25
AGAUAGCAAUAUUACGGGCG,-1.16 ± 0.14,0.433 ± 0.15
AGAUAGCAAUAUUACGGUAU,-1.43 ± 0.098,-0.614 ± 0.1
AGAUAGCAAUAUUACGGUCG,-0.105 ± 0.12,-0.324 ± 0.15
AGAUAGCAAUAUUACGGUUU,-0.692 ± 0.055,-0.341 ± 0.076
AGAUAGCAAUAUUACGUACU,-0.357 ± 0.15,-0.0062 ± 0.15
AGAUAGCAAUAUUACGUAGA,-3.03 ± 0.15,-1.77 ± 0.16
AGAUAGCAAUAUUACGUGGC,-3.18 ± 0.23,-2.86 ± 0.32
AGAUAGCAAUAUUACGUUUU,-2.35 ± 0.09,-1.68 ± 0.1
AGCAAGCAAUAUUACGAAAA,-3.39 ± 0.19,-2.39 ± 0.18
